Consider four molecules from paper doi:10.64898/2025.12.08.692910 (bioRxiv, 2025).

B1: Helicobacter pylori UreE(1-148), C-terminal truncation variant (domain or fragment, UniProt Q09064 1-148, looked up)
chain: MIIERLVGNLRDLNPLDFSVDHVDLEWFETRKKIARFKTRQGKDIAIRLKDAPKLGLSQGDILFKEEKEIIAVNILDSEVIHIQAKSVAEVAKICYEIGNRHAALYYGESQFEFKTPFEKPTLALLEKLGVQNRVLSSKLDSKERLTV
B2: Helicobacter pylori UreG (enzyme)
chain: MVKIGVCGPVGSGKTALIEALTRHMSKDYDMAVITNDIYTKEDAEFMCKNSVMPRERIIGVETGGCPHTAIREDASMNLEAVEEMHGRFPNLELLLIESGGDNLSATFNPELADFTIFVIDVAEGDKIPRKGGPGITRSDLLVINKIDLAPYVGADLKVMERDSKKMRGEKPFIFTNIRAKEGLDDVIAWIKRNALLED
B3: Helicobacter pylori HypA with C-terminal Strep-tag II (HypAstr) (natural protein, UniProt P0A0U4 1-117, looked up)
chain: MHEYSVVSSLIALCEEHAKKNQAHKIERVVVGIGERSAMDKSLFVSAFETFREESLVCKDAILDIVDEKVELECKDCSHVFKPNALDYGVCEKCHSKNVIITQGNEMRLLSLEMLAE
B4: Helicobacter pylori UreE(1-158), C-terminal truncation variant (domain or fragment, UniProt Q09064 1-158, looked up)
chain: MIIERLVGNLRDLNPLDFSVDHVDLEWFETRKKIARFKTRQGKDIAIRLKDAPKLGLSQGDILFKEEKEIIAVNILDSEVIHIQAKSVAEVAKICYEIGNRHAALYYGESQFEFKTPFEKPTLALLEKLGVQNRVLSSKLDSKERLTVSMPHSEPNFK

In the series “Helicobacter pylori UreG” the target is B2. Put plainly: crystal structure.
The series “crystal structure” concerns the molecule itself. Put plainly: crystal structure.
Series [1] deals with T1, Helicobacter pylori UreE, wild-type (residues 1-170) (Helicobacter pylori, UniProt Q09064 1-170).
T1 sequence (looked up): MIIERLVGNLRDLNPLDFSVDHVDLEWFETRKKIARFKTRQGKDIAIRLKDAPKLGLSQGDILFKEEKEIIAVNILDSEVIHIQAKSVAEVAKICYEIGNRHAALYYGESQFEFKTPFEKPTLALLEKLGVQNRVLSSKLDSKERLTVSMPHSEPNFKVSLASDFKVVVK
As to the kind of experiment: pull-down.

As for B1, the binding result with Helicobacter pylori UreG and in “crystal structure” was “binds” each time. B2: the binding result in the series “crystal structure” is on record as “binds”.

On to B3, for which, in series [1], the binding result is on record as “binds”.

For B4, the binding result with Helicobacter pylori UreG and in “crystal structure” was “binds” in each case.
